Substitutions are numbered along the chain they refer to. Blank lines part the entries; values can stand above or below the binder they belong to.
How the values were obtained:
[1] = molecular target: T1, human FGFR2 IIIb variant protein (isoform 2: NP_075259), expressed on transfected cells (human, UniProt P21802 22-821); experiment: flow cytometry, hybridoma supernatant on transfected HEK293T cells
T1 construct: also called pcDNA-DEST40-FGFR2 IIIb
T1 chain: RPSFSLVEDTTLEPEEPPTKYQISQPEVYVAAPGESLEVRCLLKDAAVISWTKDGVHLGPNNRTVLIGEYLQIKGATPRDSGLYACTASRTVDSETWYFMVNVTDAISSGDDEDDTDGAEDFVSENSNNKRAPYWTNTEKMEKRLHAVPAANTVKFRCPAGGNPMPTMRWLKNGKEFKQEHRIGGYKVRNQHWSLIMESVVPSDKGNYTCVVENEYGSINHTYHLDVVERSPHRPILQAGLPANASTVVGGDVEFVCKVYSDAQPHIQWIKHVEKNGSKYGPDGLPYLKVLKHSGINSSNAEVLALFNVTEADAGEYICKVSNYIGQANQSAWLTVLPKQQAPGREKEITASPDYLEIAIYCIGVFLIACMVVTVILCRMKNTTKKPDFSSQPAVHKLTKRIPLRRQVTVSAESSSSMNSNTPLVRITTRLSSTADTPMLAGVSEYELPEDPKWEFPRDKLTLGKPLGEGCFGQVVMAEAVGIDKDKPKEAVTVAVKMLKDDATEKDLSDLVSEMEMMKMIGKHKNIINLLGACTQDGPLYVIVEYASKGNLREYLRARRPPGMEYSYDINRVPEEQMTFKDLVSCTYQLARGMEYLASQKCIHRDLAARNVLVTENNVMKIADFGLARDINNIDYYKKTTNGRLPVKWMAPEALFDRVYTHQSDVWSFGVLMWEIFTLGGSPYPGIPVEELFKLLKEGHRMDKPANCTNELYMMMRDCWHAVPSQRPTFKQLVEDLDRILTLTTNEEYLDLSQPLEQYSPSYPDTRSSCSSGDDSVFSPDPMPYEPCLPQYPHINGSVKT
Protocol: (§1) The cell suspension was centrifuged to remove the supernatant. […] The cells were washed twice with PBS containing 5% FBS, then suspended by the addition of Anti-Rat IgG FITC conjugate (manufactured by Sigma-Aldrich Corp.) diluted 320-fold with PBS containing 5% FBS, and left standing at 4° C. for 1 hour. The cells were washed 3 times with PBS containing 5% FBS and then resuspended in PBS containing 5% FBS and 2 μg/ml 7-aminoactinomycin D (manufactured by Molecular Probes, Inc.), followed by detection using a flow cytometer (FC500; manufactured by Beckman Coulter Inc.). The data was analyzed using Flowjo (manufactured by Tree Star Inc.). After removal of 7-aminoactinomycin D-positive dead cells by gating, the FITC fluorescence intensity of live cells was plotted to a histogram to calculate average fluorescence intensity (MFI).

[2] = molecular target: T1, human FGFR2 IIIb variant protein …; experiment: Cell-ELISA on transfected 293 alpha cells, antibody 2 ug/ml
Protocol: (§2) The resulting cells were dispensed in an amount of 100 μl/well to a 96-well plate (manufactured by Corning Inc.) and cultured overnight at 37° C. under 5% CO₂ conditions in a DMEM medium containing 10% FBS. The obtained transfected cells were used in the attached state in Cell-ELISA. […] The cells in the wells were washed once with PBS containing 5% FBS. Then, Anti-Human IgG-Peroxidase antibody produced in goat (manufactured by Sigma-Aldrich Corp.) diluted 500-fold with PBS containing 5% FBS was added thereto, and the plate was left standing at 4° C. for 1 hour. The cells in the wells were washed 5 times with PBS containing 5% FBS. Then, an OPD chromogenic solution (OPD solution (o-phenylenediamine dihydrochloride (manufactured by Wako Pure Chemicals Industries, Ltd.) and H₂O₂ dissolved at concentrations of 0.4 mg/ml and 0.6% (v/v), respectively, in 0.05 M trisodium citrate and 0.1 M disodium hydrogen phosphate dodecahydrate, pH 4.5)) was added thereto at a concentration of 100 μl/well. Color reaction was performed with occasional stirring and stopped by the addition of 1 M HCl at a concentration of 100 μl/well. Then, the absorbance was measured at 490 nm using a plate reader (ARVO; PerkinElmer, Inc.).

[3] = molecular target: T2, human FGFR2 IIIc variant protein (isoform 1: NP_000132), expressed on transfected cells (human, UniProt P21802 22-821); experiment: flow cytometry, hybridoma supernatant on transfected HEK293T cells
T2 construct: also called pcDNA-DEST40-FGFR2 IIIc
Protocol: as §1

[4] = molecular target: T2, human FGFR2 IIIc variant protein …; experiment: Cell-ELISA on transfected 293 alpha cells, antibody 2 ug/ml
Protocol: as §2

[5] = molecular target: T2, human FGFR2 IIIc variant protein …; experiment: flow cytometry on transfected HEK293T cells
Protocol: as §1

- binding result [4]: binds
- binding result [2]: binds
B5: human chimeric anti-FGFR2 antibody cFR2-14 (antibody, human IgG1, V domains shown)
VH: QVKLLQSGAELVKPGASVKLSCKTSGFTFSTSYMSWLKQVPGPSTEWIGWIYAGDGGTKYNQKFKGKATLTVDKFSSTAYMDLSSLTSEDAAVYFCATDGYGDWFTYWGQGTLVTVSS
VL: DIQMTQSPASLSASLGETVTIECRASEDIYSNLAWYQQKPGNSPQLLIYDANILADGVPSRFSGSGSGTQYSLKINSLQSEDVASYFCQQYNNYPPFTFGAGTKLELKR
notes: Rat FR2-14 variable regions on human IgG1 / kappa constant regions; also called human chimeric FR2-14

- binding result [5]: binds
- binding result [1]: binds
B6: rat anti-human FGFR2 monoclonal antibody FR2-14 (antibody, V domains shown)
VH: B5 VH
VL: B5 VL
notes: Used as hybridoma culture supernatant or purified from mouse ascites; also called rat FR2-14 antibody

Second part, the binder before the results:

B1: rat anti-human FGFR2 monoclonal antibody FR2-10 (antibody, V domains shown)
VH: EVQLVESGGGLVQPGRSLKLSCVASGFRFNDFWMTWIRQAPGKGLEWVASITYTGDNTYYAGSVKGRITISRDNAKSTLYLQMNSLRSEDTATYYCTRDDYGGYSPYYMDAWGQGTSVTVSS
VL: DIQMTQSPSSLSAFLGDRVTITCRASQDIGNYLRWFQQKPGKSPRLMIYGATNLANGVPSRFSGSRSGSDYSLTINNLESEDMAIYYCLKHNEYPFTFGSGTKLEIKR
notes: Used as hybridoma culture supernatant or purified from mouse ascites; also called rat FR2-10 antibody
- binding result [1]: binds

B2: human chimeric anti-FGFR2 antibody cFR2-10 (antibody, human IgG1, V domains shown)
VH: B1 VH
VL: B1 VL
notes: Rat FR2-10 variable regions on human IgG1 / kappa constant regions; also called human chimeric FR2-10
- binding result [2]: binds

B3: rat anti-human FGFR2 monoclonal antibody FR2-13 (antibody, V domains shown)
VH: B5 VH with T45I, F75S, T106A
VL: B5 VL with A101V
notes: Used as hybridoma culture supernatant or purified from mouse ascites; also called rat FR2-13 antibody
- binding result [3]: binds
- binding result [1]: binds

B4: human chimeric anti-FGFR2 antibody cFR2-13 (antibody, human IgG1, V domains shown)
VH: B5 VH with T45I, F75S, T106A
VL: B5 VL with A101V
notes: Rat FR2-13 variable regions on human IgG1 / kappa constant regions; also called human chimeric FR2-13
- binding result [4]: binds
- binding result [2]: binds

— US20160317656A1 (Daiichi Sankyo, published 2016)
